{
  "source": "paper PMC3217859",
  "about": "“Protein phosphatase 2a (PP2A) binds within the oligomerization domain of striatin and regulates the phosphorylation and activation of the mammalian Ste20-Like kinase Mst3” (BMC Biochemistry, 2011)",
  "test_in_all_cases": "co-IP; anti-HA immunoprecipitates (12CA5 with protein A-Sepharose, or F7 anti-HA-agarose when probing for Mst3 or Mst4; 1.5 h, 4°C) of lysates (1% Nonidet P-40, 0.135 M NaCl, 10% glycerol, 20 mM Tris pH 8.0) of HEK293 cells transfected with HA-striatins; endogenous partners by immunoblot, partner/HA-striatin ratio by chemilumimager against wild type; 50 mM NaF and 100 nM okadaic acid in the lysis buffer in the …",
  "settings_in_all_cases": "partners not purified",
  "key": {"[1]": {"molecular_target": "T1, HA-tagged Δ(227-309) striatin (human, UniProt O43815 1-780, Δ(227-309))", "T1 construct": "source: HEK293, transfected, in lysate; not shown: HA, N-terminal, kept", "T1 sequence (looked up)": "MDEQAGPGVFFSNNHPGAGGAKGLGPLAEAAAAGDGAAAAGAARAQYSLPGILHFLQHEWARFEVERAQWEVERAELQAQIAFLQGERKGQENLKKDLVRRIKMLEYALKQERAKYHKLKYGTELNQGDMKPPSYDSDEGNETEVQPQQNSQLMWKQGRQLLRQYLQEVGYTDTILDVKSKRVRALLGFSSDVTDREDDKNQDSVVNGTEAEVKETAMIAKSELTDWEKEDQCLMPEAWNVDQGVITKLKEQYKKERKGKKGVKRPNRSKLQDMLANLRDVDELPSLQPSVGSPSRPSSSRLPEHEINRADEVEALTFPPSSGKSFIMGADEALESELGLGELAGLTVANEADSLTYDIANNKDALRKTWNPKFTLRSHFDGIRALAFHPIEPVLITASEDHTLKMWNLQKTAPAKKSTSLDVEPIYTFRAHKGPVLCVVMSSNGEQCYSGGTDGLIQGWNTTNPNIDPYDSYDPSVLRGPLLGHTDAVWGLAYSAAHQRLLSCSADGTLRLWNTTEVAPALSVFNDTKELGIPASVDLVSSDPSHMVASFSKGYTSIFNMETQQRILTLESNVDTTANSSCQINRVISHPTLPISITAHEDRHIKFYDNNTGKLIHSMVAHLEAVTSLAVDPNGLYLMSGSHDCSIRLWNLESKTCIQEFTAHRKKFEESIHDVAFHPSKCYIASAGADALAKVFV"}, "[2]": {"molecular_target": "T2, HA-tagged Δ(3-309) striatin (human, UniProt O43815 1-780, Δ(3-309))", "T2 construct": "source: HEK293, transfected, in lysate; not shown: HA, N-terminal, kept", "T2 sequence (looked up)": "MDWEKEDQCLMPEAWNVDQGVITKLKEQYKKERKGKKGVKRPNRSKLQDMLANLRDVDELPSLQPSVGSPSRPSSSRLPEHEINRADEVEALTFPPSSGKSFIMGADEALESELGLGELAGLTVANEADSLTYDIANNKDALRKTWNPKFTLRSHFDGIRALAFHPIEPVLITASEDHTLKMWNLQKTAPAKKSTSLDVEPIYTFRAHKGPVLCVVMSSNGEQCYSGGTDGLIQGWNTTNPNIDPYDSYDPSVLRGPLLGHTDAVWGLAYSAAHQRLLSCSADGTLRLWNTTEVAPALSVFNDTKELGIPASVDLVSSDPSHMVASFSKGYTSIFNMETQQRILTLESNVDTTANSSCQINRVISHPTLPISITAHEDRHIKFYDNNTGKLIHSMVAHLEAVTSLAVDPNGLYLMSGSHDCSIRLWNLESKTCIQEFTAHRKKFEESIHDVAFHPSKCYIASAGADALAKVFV"}, "[3]": {"molecular_target": "T3, HA-tagged Δ(70-116) striatin (human, UniProt O43815 1-780, Δ(70-116))", "T3 construct": "also called coiled-coil deletion mutant; source: HEK293, transfected, in lysate; not shown: HA, N-terminal, kept", "T3 sequence (looked up)": "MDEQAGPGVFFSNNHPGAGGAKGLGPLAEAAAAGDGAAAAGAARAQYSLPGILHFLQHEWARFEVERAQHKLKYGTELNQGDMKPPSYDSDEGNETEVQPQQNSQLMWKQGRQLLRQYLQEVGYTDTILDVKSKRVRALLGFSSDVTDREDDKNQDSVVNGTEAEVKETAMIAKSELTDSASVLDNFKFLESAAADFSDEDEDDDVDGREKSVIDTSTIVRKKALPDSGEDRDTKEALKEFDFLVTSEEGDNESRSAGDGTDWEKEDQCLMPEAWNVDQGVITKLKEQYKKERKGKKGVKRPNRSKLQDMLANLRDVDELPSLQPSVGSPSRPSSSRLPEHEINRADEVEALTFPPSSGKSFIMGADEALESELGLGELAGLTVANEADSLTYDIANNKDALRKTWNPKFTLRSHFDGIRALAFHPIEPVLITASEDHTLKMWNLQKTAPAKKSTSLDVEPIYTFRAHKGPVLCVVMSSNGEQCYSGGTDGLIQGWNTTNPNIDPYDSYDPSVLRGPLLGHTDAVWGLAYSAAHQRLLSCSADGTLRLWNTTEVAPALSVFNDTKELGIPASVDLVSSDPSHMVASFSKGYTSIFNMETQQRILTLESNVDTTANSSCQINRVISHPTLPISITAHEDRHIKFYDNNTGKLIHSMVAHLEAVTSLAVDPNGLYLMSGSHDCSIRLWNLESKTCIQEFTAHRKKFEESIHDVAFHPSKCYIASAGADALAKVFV"}},
  "data": [
    {"binder": "Mob3/phocein (natural protein, human (endogenous in HEK293), UniProt Q9Y3A3 1-225, looked up, source: endogenous, HEK293 lysate) MVMAEGTAVLRRNRPGTKAQDFYNWPDESFDEMDSTLAVQQYIQQNIRADCSNIDKILEPPEGQDEGVWKYEHLRQFCLELNGLAVKLQSECHPDTCTQMTATEQWIFLCAAHKTPKECPAIDYTRHTLDGAACLLNSNKYFPSRVSIKESSVAKLGSVCRRIYRIFSHAYFHHRQIFDEYENETFLCHRFTKFVMKYNLMSKDNLIVPILEEEVQNSVSGESEA", "values": [
      {"measurement": "percent of the wild-type level bound", "setting": "[1]", "result": "75 % of wild-type levels"},
      {"measurement": "percent of the wild-type level bound", "setting": "[2]", "result": "~40 % of wild-type level"},
      {"measurement": "percent of the wild-type level bound", "setting": "[3]", "result": "40 % of wild-type levels"}
    ]}
  ]
}
